Entries after “also recorded” stand apart in the source; their conditions may differ.
Key:
[1] = tested on: AtPRK^LRR proteins other than AtPRK6^LRR; test: In vitro pull-down with other AtPRK^LRR proteins; assay type: binding, Arabidopsis; settings: Ni-NTA, excess AtLURE1.2, on ice 30 min, washed five times; SDS-PAGE, Coomassie blue
Text: (§1) The genes of AtPRK3 ^LRR (residues 1–241), AtPRK4 ^LRR (residues 1–277), AtPRK5 ^LRR (residues 1–279), AtPRK6 ^LRR (residues 1–262), MIK1 ^LRR (residues 1–633), MIK2 ^LRR (residues 1–707) were amplified from Arabidopsis cDNA library by PCR and cloned into pFastBac-1 vector with a C-terminal 6 × His-tag. Their identities were confirmed by sequencing. The mature form of AtLURE1.1 (residues 20–94), AtLURE1.2 (residues 20–90), AtLURE1.3 (residues 21–91), and AtLURE1.4 (residues 20–90) were cloned into pFastBac-1 vector, with a modified N-terminal hemolin signal peptide and 6 × His-SUMO tag. Point mutation constructs were generated by QuickChange Site-Directed Mutagenesis Kit (Strategene). All the proteins were expressed using the Bac-to-Bac baculovirus expression system (Invitrogen) in High Five cells at 22 °C. One liter of High Five cells (2.0 × 10^6 cells mL^−1) cultured in the medium from Expression Systems was infected with 25 ml recombinant baculovirus and the media was collected after 72 h of infection. Secreted LRR proteins were purified using Ni-NTA (Novagen) and size-exclusion chromatography (Hiload 200, GE Healthcare) in buffer containing 10 mM Bis-Tris pH 6.0 and 100 mM NaCl. […]
(§2) The purified His-tagged ectodomains of AtPRK proteins and MIK1, 2 were used to pull-down the AtLURE1.2 peptide. […] All the eluted samples were analyzed by SDS-PAGE and visualized by Coomassie blue staining. […]

[2] = tested on: semi-in-vivo pollen tubes (wild type); test: AtLURE-responsive wavy assay, wild-type pollen tubes; assay type: cell-based, Arabidopsis; settings: 250 nM peptide in solid pollen germination medium
Procedure: (§3) Attraction activities of mutant AtLURE1.2 peptides were examined for semi-in-vivo pollen tubes growing through cut, pollinated pistils by gelatin-beads assay and wavy assay, [20]. For the gelatin-beads assay, pollen tubes were grown on solid pollen germination medium poured into a mold made with 1-mm thick silicone rubber and cover glasses. After hand-pollination, the topside cover glass was removed and the medium was covered with hydrated silicone oil (KF-96–100CS; Shin-Etsu). Attraction of pollen tubes toward the peptide was evaluated using AtLURE1 peptide containing gelatine beads under an inverted microscope (IX71, Olympus) equipped with a micro-manipulator (Narishige). For the AtLURE1-responsive wavy assay, the purified AtLURE1.2 peptide was added to solid pollen germination medium, which was melted at 70 °C and then cooled to a certain degree. The mixture was mixed by vortexing and poured into the mold. Pollen tubes of each genotype were grown through cut styles, as mentioned above. Each peptide (25 μM in 10 mM Bis-Tris (pH 6.0) and 100 mM NaCl) was diluted to 250 nM by cultivation medium in both assays. […]
(§4) pollen tubes. Fluorescence is from mRuby2 fused to the C-terminal of PRK6 receptors, showing that all of mutant PRK6 receptors localize normally to the plasma membrane of the pollen tube tip. […]

MIK1^LRR = test: Gel filtration assay with MIK1^LRR; assay type: binding, Arabidopsis; settings: 4 °C 30 min, 10 mM Bis-Tris pH 6.0, 100 mM NaCl
Text: as §1, with “NaCl. The His-SUMO tag of the AtLURE proteins was removed by Prescission Protease at 4 °C overnight in buffer containing 25 mM Tris pH 8.0 and 150 mM NaCl.” for “NaCl.”

PRK6 N239A = test: In vitro pull-down with AtPRK6^LRR mutant N239A; assay type: binding, Arabidopsis thaliana
Text: as §1, §2

MIK2^LRR = test: In vitro pull-down with MIK2^LRR; assay type: binding, Arabidopsis; settings: Ni-NTA, excess AtLURE1.2, on ice 30 min, washed five times; SDS-PAGE, Coomassie blue
Text: as §1, §2

[3] = tested on: prk6 pollen tubes transformed with PRK6 ΔN239I240; test: Gelatin-beads assay, prk6 pollen tubes transformed with ΔN239I240 PRK6; assay type: cell-based, Arabidopsis; settings: beads with 250 nM wild-type AtLURE1.2; 10–23 pollen tubes per assay, three assays
Procedure: as §3, with “assays. To examine reactivity of PRK6 mutants to AtLURE1.2, constructs for PRK6 mutants, D234A, N239A, and ΔN239I240, were generated by site-directed mutagenesis from a wild-type PRK6 vector, pPZP221-pPRK6::PRK6-mRuby2 (ref. [20]).” for “assays.”

[4] = tested on: prk6 pollen tubes transformed with PRK6 N239A; test: Wavy assay, prk6 pollen tubes transformed with N239A PRK6; assay type: cell-based, Arabidopsis; settings: 250 nM wild-type AtLURE1.2 in medium
Procedure: as §3, §4

B1: AtLURE1.2: mature form of AtLURE1.2 (residues 20–90), defensin-like cysteine-rich peptide expressed in insect cells (protein)
chain: TLINGSSDEERTYSFSPTTSPFDPRSLNQELKIGRIGYCFDCARACMRRGKYIRTCSFERKLCRCSISDIK
modifications: left off: His6, N-terminal, cleaved | SUMO, N-terminal, cleaved
notes: mature form of AtLURE1.2 (residues 20–90), defensin-like cysteine-rich peptide expressed in insect cells
interaction in pull-down assay [1]: none of the other LRR proteins was found to interact | wavy pollen tube response [2]: caused pollen tube wavy response | interaction in gel filtration (MIK1^LRR): no interaction; also recorded: none of the purified AtPRK3^LRR, MIK1^LRR or MIK2^LRR proteins showed detectable interaction | AtLURE1.2 binding activity of receptor mutant (PRK6 N239A): still retained the AtLURE1.2 binding activity | interaction in pull-down assay (MIK2^LRR): none of the other LRR proteins was found to interact | pollen tube attraction [3]: significantly lower than those in wild-type and N239A PRK6 pollen tubes; also recorded: significantly reduced | wavy and branched pollen tube behavior [4]: severe wavy and branched behavior; also recorded: comparable reactivity to the wild-type PRK6
